Laboratory results from publication PMC10802294 (bioRxiv, 2024).
Side chains are listed from the residue outwards. Ends that are not written are not given here. * marks the point of attachment. Biotin = O=C1N[C@H]2[C@H](CS[C@H]2CCCCC(=O)*)N1; RADP = not defined here; Aoa = not defined here

Legend:
[1] = biological target: MERS-CoV Mac1 protein (WT) (MERS-CoV, UniProt K9N638 1110-1273); assay: AlphaScreen or HTRF
[2] = biological target: SARS-CoV-2 Mac1 protein (WT) (SARS-CoV-2, UniProt P0DTC1 1023-1197); assay: AlphaScreen or HTRF

Sequence of MERS-CoV Mac1 protein (WT) (K9N638 1110-1273): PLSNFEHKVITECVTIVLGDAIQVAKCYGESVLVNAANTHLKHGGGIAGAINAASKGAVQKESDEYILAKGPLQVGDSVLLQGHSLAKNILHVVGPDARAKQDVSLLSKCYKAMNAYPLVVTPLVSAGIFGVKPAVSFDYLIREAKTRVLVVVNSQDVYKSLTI

Binder: ARTK(Biotin)QTARK([Aoa-RADP])S (reading uncertain) [10 amino acid biotinylated and ADP-ribosylated peptide [ARTK(Bio)QTARK(Aoa-RADP)S]]
- binding result [1]: binds
- binding result [2]: binds
